± gives the half width of the 95% confidence interval.
assay: folding stability dG unfold (combined trypsin and chymotrypsin); higher = more stable
Experimental: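 Folding stability of de novo designed mini-proteins (<80 aa, no Cys; designed by TrROS, TrMRF, ProteinMPNN and the joint model) was measured by cDNA display proteolysis with trypsin and chymotrypsin. Each protease was used at 11 concentrations in a threefold dilution series plus a no-protease condition. K50 was inferred by Bayesian fitting of sequencing counts, and dG unfold was derived against a sequence-predicted unfolded-state K50 (Tsuboyama et al. method). Sequences shown include variable-length N-terminal GS-type padding (SAGGSAGG...) inside a display construct carrying a PA tag. Rows were kept only if the AF2 dimer inter-PAE was >15, to exclude likely homo-oligomers.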

Sequence | folding stability dG unfold
SAGGSAGGSAGGGMTVEEDPSSNIVTERIEYPDSIVTITRKRTPNPSWVTLATTTTPLGSAGGSAGGSAGGS [r10_840_JUSTAS] | < -1 kcal/mol
SAMEISIDPIEDGPVRVTETYKFPGYTRITVKEIPKELLEKGVPLSELPNVPVLEEEIVEIPPPSPELKSAG [r14_856_JUSTAS] | < -1 kcal/mol
SAGGSAGGSAGGSMYRIEIKMPNNPRTIWVPPDELPDDDLEEIAKENFPNIDKIKVWRWSAGGSAGGSAGGS [r4_235_TrROS] | < -1 kcal/mol
SAGGSAGGSAGGTVEELAKQIQEEWQENGFKVEKVEVEDGTIKIEWKNGRQREIPFEKGSAGGSAGGSAGGS [r10_169_TrROS] | < -1 kcal/mol
SAGGSAGGSAGGLTEEEILKKLGLSPDVELLEMPREPERGVYYVKVKKGEGPEEFVVEESAGGSAGGSAGGS [r10_17_JUSTAS] | < -1 kcal/mol
SAGGSAGGAEAVEAAKAKLPPDEERTVVVPDPDDPSRVTTYTLTARGDEVEVPVTTEPVPPGLESAGGSAGG [r6_393_JUSTAS] | < -1 kcal/mol
SAGLYLVKNKETKEIVTVPAENLSDEQLKAGFEVVKLPPVKINITVESAEEAEALAKLFPDKVEVTVNESAG [r14_638_TrROS_Hall] | < -1 kcal/mol
SAGGSAPPKIDIDVEPNPEEGYYRVTVEFPDGWPLKIPYPYPDPEDNKRNAKKHVKWILKKHEELLSAGGSA [r15_477_TrROS] | < -1 kcal/mol
SAGGSAGGSAMPEEEKPPIVRTVVLQADGEPIVLTSKPDEEIKLPPSLANAVVLEEEVSPGLSAGGSAGGSA [r18_415_JUSTAS] | < -1 kcal/mol
SAGGSARWMEYQIPFKSPQKREKLKEALMEHPGISEVDWPPNGTINITIPRDNPNRIKKAAKKAGFSAGGSA [r15_834_TrROS] | < -1 kcal/mol
SAGGSAGGSAMPVVEIGLEMEPYEPEAGGKLMLVPIKDNLLPEHALAAARLLEPLGVVTAPSAGGSAGGSAG [r3_157_TrMRF] | < -1 kcal/mol
SAGGSAGGSAGPEVRPAPTPDGREVWVLRRTRRHPGPGDGVVVEEEVVPADDPEALRRRASAGGSAGGSAGG [r11_967_TrMRF] | < -1 kcal/mol
SAGGSAGGPVIPTPSDLVVEVGKLSEELSFLSKSVRPNGPEELVFDSSVLVEEGVKVLKPSDRRSAGGSAGG [r6_586_JUSTAS] | < -1 kcal/mol
SAGGSAGGSAGGSRKINIFFDDPEQARKFAREIRNEGLPPEDMPIKVEITPIPPEDMGASAGGSAGGSAGGS [r4_281_TrROS] | < -1 kcal/mol
SAGGSAGGSAGTEISLPSSLPDRPIETVPVEIVSPGPGDPRRETINVTRTPDRVLAVDRRSAGGSAGGSAGG [r11_21_JUSTAS] | < -1 kcal/mol
SAGGSAGGSKLPDGPYKIRMPHNGRPYEMPIRVTSDGMIEVRMPGEGKKRTFPLNQAEIEPLDSAGGSAGGS [r12_782_TrROS] | < -1 kcal/mol
SAGGPGKYRVIFYPKDTDKPIEADVPASHIKKFDPKNNFIEISAPPGPTLTIPDPDKVKKVIIEPIPSAGGS [r8_111_TrMRF] | < -1 kcal/mol
SAGGSAGGSAGGSPEELAAAIRAEGREAEIEVTPDEVTIRLTAPDGRRSTLTVPRAALASAGGSAGGSAGGS [r10_1029_JUSTAS] | < -1 kcal/mol
SAGGSAGGSAGGSGELELTVVSPLPDGTVKVTRYRVELPEDGLEITEVETEEVPPEEAGSAGGSAGGSAGGS [r4_389_TrMRF] | < -1 kcal/mol

Sequence | folding stability dG unfold
SAGGSAGGSAEELAKKLAEELGVKVEVEEKDGKLVVKIEKKKAKPKPKKVEKKKYYSEEELKSAGGSAGGSA [r18_27_TrROS_Hall] | < -1 kcal/mol
SAGGSAGGSAGGAMPSDVLSTTTEPVAPTGSKTVSAPDAVVTVTLDPNTPVATTKTYGVSAGGSAGGSAGGS [r10_965_JUSTAS] | < -1 kcal/mol
SAGGSAMKDFADAPGITDIHPYPDGTISIHFKSSPNARDKIVEALRKEGNIDIKTHPDHGMIRIKVSAGGSA [r15_554_TrROS] | < -1 kcal/mol
SAGGSAGGSAPQRFNIVLEVKEPETGKTKVVKRTLSSEEEALKKIPEGLEVKKITVLPPDVPLSAGGSAGGS [r12_208_JUSTAS] | < -1 kcal/mol
SAGGMRLADTLEEVENAAPGEIVALRAPDPLTPRPVVLVFRNPDGELGPLAYADADGNIHLPEELKEAGSAG [r5_490_TrMRF] | < -1 kcal/mol
SAGGSAGGSAGGEKTIFIPPDNPEKLADEAQKKGLTVEREPNSWLKVNGKKIRIIIMPPSAGGSAGGSAGGS [r10_930_TrROS] | < -1 kcal/mol
SAMTIPVLVEGDIEKLEEREEEIKREVAEELGLPEDLKDLKVEVLEIEPLPDEDGKPTKVRMLVEVHLRSAG [r14_736_TrMRF] | < -1 kcal/mol
SASLPEKLAKELLPEAKEIKILEVKTEPDPNSDRPVTTVKMEAELEGGKKKLTVTLSPGPLKIKVTPEPSAG [r14_397_JUSTAS] | < -1 kcal/mol
SAGGSAGGSAGSPPDQTVTITTTVVTTETTTYPGTPGVTVPRTVVTTVPVTLPVTDPALLSAGGSAGGSAGG [r11_734_JUSTAS] | < -1 kcal/mol
SAGGMKTIEYPVVMDEEEAVKLVEELVAKAKAEGEETVVKVEVYRIGKGPDGVPTREKLGTYEVEVPGSAGG [r13_974_JUSTAS] | < -1 kcal/mol
SAGGSAGGSAGRMYIIRNPGKKVIIPRGWMPKLQKKNPNVEIEEFESPEDADKAQDKALDSAGGSAGGSAGG [r11_60_TrROS] | < -1 kcal/mol
SAGGSAGGSAGGPNPRIIPLTFPVKDKEAVILLPPGVKPASIEVDPEDGRIRVNAVDPLSAGGSAGGSAGGS [r10_906_TrMRF] | < -1 kcal/mol
SAVKVEEKDDVTIKTYTEPEGGLELVETIDKNGNLIAKTEIKVERKPDAKGNLYVTKVSTKTTVLNPNPISA [r9_262_JUSTAS] | < -1 kcal/mol
SAGGSAGGSAGNIEVNGDRIKIRFEGGHEFTFPNLPPGKPIEFKFNNQPFRIRDVEVEPPSAGGSAGGSAGG [r11_16_TrROS] | < -1 kcal/mol
SAGGSAGGSAGDKPIKIFWNPEFPGRVYIKTPDKERPVPLNDLEELGIDEVVPMEEAMEQSAGGSAGGSAGG [r17_88_TrROS] | < -1 kcal/mol
SAGGSAGGMKTIPLPGWTPEEFREVIKKHGGTFTIERPGGEKVTVDFTPDSEPPPEEPHTLIISSAGGSAGG [r6_304_JUSTAS] | < -1 kcal/mol
SAGGSAGGMPLRVDFRPSDSDEVTTRELPLTGDEEEARARVEAAAPPGVASVDLDPEAFRAAAASAGGSAGG [r6_889_JUSTAS] | < -1 kcal/mol
SAGGSAGGSAGGWYISIEPKNKKEKTIMIPPGDPDILEELADNGDRVSIFDPKNGKEFKVSAGGSAGGSAGG [r7_430_TrROS] | < -1 kcal/mol
SAGGSAGGNTITLPLPDGRKLTIDMHPNPDGNMYVNIDVQTPGKEKEITVPMDNPAIREAVKELSAGGSAGG [r6_607_TrROS] | < -1 kcal/mol

Sequence | folding stability dG unfold
SAGGSAGGSAGGGAKPNQPVKVKIKYELLREEKELLPDGSVKTKKEVKVEIEGYEDADFKSAGGSAGGSAGG [r7_919_TrMRF] | < -1 kcal/mol
SDAIKNQTIEELLDQLPPGDEPGEPKEFTIPGYEIKITDFEPEKDDGGGPRPRRVIEVEDPNGPIEIPIESA [r9_279_TrROS] | < -1 kcal/mol
SAGGSAGGSVIEKDPDDTILLKLEIPEEGKESLVTLPKDEVEKVIEEKGVKKLTALKLGEPKPSAGGSAGGS [r12_294_JUSTAS] | < -1 kcal/mol
SAGGSATITLKPGEKVEITVTITVTEYKYDKNGKLVEKKTYKITVKATFTVDEDGNIHVEIKIEIESAGGSA [r2_154_TrROS_Hall] | > 6 kcal/mol
SAGGSAGGSAGGSMKISLEFKVPIYEEFPGKEKPVEEVEVPVEVPENNEEEAEKIKKELSAGGSAGGSAGGS [r4_153_JUSTAS] | < -1 kcal/mol
SAGGRYLTLRIPPNHPGDIDIEPVPADDMPPGWGYKIYSPKKGHTQTFPLDNADELLDHPGIDEIEPVSAGG [r19_302_TrROS] | < -1 kcal/mol
SAGGSAGGMKITEVTSEAPVPETGEVVRVAKTEDGSTITTVEYPGTGETRVYREKPDEVTPIALSAGGSAGG [r6_796_JUSTAS] | -0.865 ± 0.79 kcal/mol
SAGGSAGGSFEVEPTPDHVSIRYYNPDGNPPVSATVDPPEGDIDFEHPDKKQEFPLKPGDTLISAGGSAGGS [r12_536_TrROS] | < -1 kcal/mol
SAGGSAGGSRTFRSPSGVRYTETSSVLETSPDPENGLWSTVTSSVVSVDPGPPAPPPPLSPALVSAGGSAGG [r6_939_JUSTAS] | < -1 kcal/mol
SAGGSMTVKEFTDPEEVEKAVEEMDSNEVAVMPVPERPVERVFTKINDKVIRETINGETVTTEELLSAGGSA [r2_280_JUSTAS] | < -1 kcal/mol
SAGMFYVLKTKRPTPSAPPEVLAADPNAEVETEYKLSPDTSEEEIKKIKEELKNKGWKEVKLVPISELKSAG [r5_60_JUSTAS] | < -1 kcal/mol
SAGGSAGGSAGGMLPNPKTIKVPLKPGETKEKVKEEAEKKFPPGKITVTVSEDGTATVLVSAGGSAGGSAGG [r7_273_JUSTAS] | < -1 kcal/mol
SAGGMKTIKLPPFTEEELEKVIEEAEKNPNSDVKITLPEGKEYYIKPPGKLKELKVEELPPLPESLESAGGS [r16_248_JUSTAS] | < -1 kcal/mol
SAGGSLEEIADELAQKPGFDEVKIDVWKPPNGNFMLSVHNKENNRELQIPLPPNWKPVGTYELPVKSAGGSA [r2_74_TrROS] | < -1 kcal/mol
SAGGSAATVVDPSTGSTYTFTPEGSGYRITRTLVTPDPTSDAVSTAPTTELLPPSEIPPELLARLSSAGGSA [r15_703_JUSTAS] | < -1 kcal/mol
SAGGSAGGSAGMPFKITKVTPDGKITIYDGGNPITIPPGSDHIKIEFGGGTKEIKIPPGMSAGGSAGGSAGG [r11_647_TrROS] | < -1 kcal/mol
SAGGSAGGSANLEAAKKLFKDYPPGEEREIPIRVRTPGKPVPFRIKIYYPEDGNMKIDIEPYSAGGSAGGSA [r18_493_TrROS] | < -1 kcal/mol
SNAKDLARELFEEHGYPIEPESIDPDEDWVTFRFEPPGEPPYDISIDVDPEEGKLKVTIDPQNGYITIPVSA [r9_1119_TrROS] | < -1 kcal/mol
SAGAKLYTVKAPGSSELLKGLKEKGVEILGTEENVVVVKVPVVPPLTPEAIEEAKKEGLTLEEAIKKASAGG [r19_115_TrMRF] | < -1 kcal/mol

Reference: the supplement of paper PMC12764529
